In publication PMC7790435:

Target: Thermotoga maritima CheA, full-length (Thermotoga maritima) (UniProt Q56310)
Assay: cross-linking + SEC-MALS

stoichiometry N	Molecule
2	Thermotoga maritima CheA, full-length (from UniProt Q56310 1-671) (enzyme)
2	Thermotoga maritima CheW (natural protein) KEFEVLSFEIDEQALAFDVDNIEMVIEKSDITPVPKSRHFVEGVINLRGRIIPVVNLAKILGISFDEQKMKSIIVARTKDVEVGFLVDRVLGVLRITENQLDLTNVSDKFGKKSKGLVKTDGRLIIYLDIDKIIEEITV
